Results reported in patent US7169892B2, “Lipid-peptide-polymer conjugates for long blood circulation and tumor specific drug delivery systems” (Astellas Pharma Inc., priority 2003, dated 2007).
The star is where a group is joined. amidopropyl polyoxyethylene methyl ether = C-terminal amidopropyl PEG methyl ether; Fmoc = O=C(OCC1c2ccccc2-c2ccccc21)*

Molecular target: T1, MMP-2 (Homo sapiens, UniProt P08253)
T1 sequence (P08253 110-660): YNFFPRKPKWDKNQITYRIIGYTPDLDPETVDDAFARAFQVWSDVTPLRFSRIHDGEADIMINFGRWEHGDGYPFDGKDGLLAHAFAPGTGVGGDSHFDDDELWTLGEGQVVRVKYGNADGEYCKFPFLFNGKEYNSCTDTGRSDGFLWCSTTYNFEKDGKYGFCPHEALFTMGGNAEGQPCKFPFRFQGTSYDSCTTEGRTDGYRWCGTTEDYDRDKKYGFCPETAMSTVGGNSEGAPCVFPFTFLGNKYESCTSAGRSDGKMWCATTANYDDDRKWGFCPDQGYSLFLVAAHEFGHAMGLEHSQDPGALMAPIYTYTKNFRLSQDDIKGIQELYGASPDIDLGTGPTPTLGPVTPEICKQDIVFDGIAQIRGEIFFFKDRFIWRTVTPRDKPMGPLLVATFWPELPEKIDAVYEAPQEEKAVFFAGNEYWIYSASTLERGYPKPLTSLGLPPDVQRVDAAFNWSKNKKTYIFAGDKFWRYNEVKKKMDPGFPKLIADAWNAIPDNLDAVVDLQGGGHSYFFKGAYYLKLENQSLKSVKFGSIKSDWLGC
Assay: Degradation of Fmoc-GPQGIAGWG-PEG by MMP-2 (gel filtration)
Type: biochemical
Details: per unit weight of MMP-2 and unit time, beginning (15 minutes), MMP-2 0.34 μg/ml, 37° C., FIG. 4
Description: After mixing in 0.5 ml of sample in 0.5 ml of acetonitrile, the mixture was filtered and gel filtration was performed.
The effects on degradation by MMP-2 when PEG bonded with Fmoc-GPQGIAGWG (SEQ ID NO:21) were evaluated.
MMP-2 solution was diluted with Tris buffer. […] The final concentration of MMP-2 was 0.34 μg/ml. […] The Fmoc-GPQGIAGWG-PEG (SEQ ID NO:22) in the filtrate was separated and quantitatively determined by gel filtration.

- degradation rate by MMP-2 compared with Fmoc-GPQGIAGWG: virtually the same
Substance: 9-fluorenylmethyloxycarbonyl (Fmoc)-glycyl-prolyl-glutamyl-glycyl-isoleucyl-alanyl-glycyl -tryptophanyl-glycyl (Fmoc-Gly-Pro-Gln-Gly-Ile-Ala-Gly-Trp-Gly)-amidopropyl polyoxyethylene methyl ether (Fmoc-GPQGIAGWG-{amidopropyl polyoxyethylene methyl ether}) [Fmoc-GPQGIAGWG-PEG]
